Patent US20190367631A1 (Regeneron, published 2019)

B1: H1H27731P-N297Q (antibody, V domains shown)
VH: QLQLQESGPGLVKPSETLSLTCTVSGGSISRISYYWGWIRQPPGKGLEWIGSIYDSGSTYYNPSLKSRVTISIDTSKNQFSLKLSSVTAADTAVYYCVRYSSSSAFAFDYWGQGTLVTVSS
VL: DIQMTQSPSSVSASVGDRVTITCRASQGISSWLAWYQQKPGKAPKLLIYAASSLQSGVPSRFSGSGSGTDFTLTISSLQPEDFATYYCQQANSFPFTFGPGTKVDIKR
notes: human IgG1 Fc with N297Q
B2: H1H27734P-N297Q (antibody, human IgG1, V domains shown)
VH: EVQLVESRGGLVQPGGSLRLSCAASGFTFSSYAMSWVRQAPGKGLEWVSAISGSGGSTFYADSVKGRFTISRDNSKNTVYLQMNSLRAEDTAVYYCAKALVLRFLEWLGDYWGQGTLVTVSS
VL: DIQMTQSPSTLSASVGDRVTITCRASQSISSWLAWFQQKPGKAPKLLIYKASSLESGVPSRFSGSGSGTEFTLTISSLQPDDFATYYCQQYKSYWTFGQGTKVEIKR
notes: human IgG1 Fc with N297Q
B3: H1H27766P2-N297Q (antibody, human IgG1, V domains shown)
VH: EVQLVESGGGLVQPGGSLRLSCAASGFTFSSFAMSWVRQAPGKELEWVSSISGRGGSTYYADSVRGRFTISRDNSKITLYLQMNSLRAEDTAVYYCAKDIVFRYTSSAYWYFDLWGRGTLVTVSS
VL: not shown
notes: human IgG1 Fc with N297Q; also called H1H27766P-N297Q
B4: H1H27732P-N297Q (antibody, V domains shown)
VH: QLQLQESGPGLVKPSETLSLTCTVSGGSISSSTYYWGWIRQPPGKGLEWIGSFYYSGSTYYNPSLKSRVTISVGTSKNQFSLKLSSVTAADTAVYFCARGGLLGRPFVIWGQGTMVTVSS
VL: DIQMTQSPSSLSASVGDRVTITCRASQGIRNDLGWYQQKPGKAPKRLIYAASSLQSGVPSRFSGSGSGTEFTLTISSLQPEDFATYYCLQHNSYPLTFGGGTKVEIKR
notes: Human IgG1 Fc with N297Q point mutation
B5: H1H21234N-N297Q (antibody, human IgG1, V domains shown)
VH: QVQLQESGPGLVKPSETLSLTCTVTGGSISRNYWSWIRQPPGKGLEWIGYIYYSGSIDYNPSLKSRVTISVDTSKNQFSLKLSSMTAADTAVYYCARDRWNWKYGMDVWGQGTTVIVSS
VL: EIVLTQSPGTLSLSPGERATLSCRASQTVRNNYLAWYHQKPGQAPRLLIYGASSRATGIPDRFSGSGSGTDFTLTISRLEPEDFTVYYCHQYGNSPWTFGQGTKMEIKR
notes: human IgG1 Fc with N297Q point mutation (EU numbering)
B6: H1H27729P-N297Q (antibody, human IgG1, V domains shown)
VH: QVQLVESGGGLVKPGGSLRLSCAASGFIFSDYYMSWIRQAPGKGLEWVSYISSSGTTIYGDSVKGRFTMSRDNAKNSLYLQMNSLRAEDTAVYYCARNYALFDYWGQGTLVTVSS
VL: DIQMTQSPSSLSASVGDRVTITCQASQDISKYLNWYQQKPGKAPKLLIYYTSNLETGVPSRFSGSGSGTDFTFTISSLQPEDIATYYCHQSDYLPFTFGPGTKVDIKR
notes: human IgG1 Fc with N297Q

Tests used:
[1] = target: T1, full length human MSR1 with a C-terminal Myc tag, on HEK293.Myc.hMSR1 cells (human, UniProt P21757 1-451); experiment: cell-based or functional assay
T1 sequence (looked up): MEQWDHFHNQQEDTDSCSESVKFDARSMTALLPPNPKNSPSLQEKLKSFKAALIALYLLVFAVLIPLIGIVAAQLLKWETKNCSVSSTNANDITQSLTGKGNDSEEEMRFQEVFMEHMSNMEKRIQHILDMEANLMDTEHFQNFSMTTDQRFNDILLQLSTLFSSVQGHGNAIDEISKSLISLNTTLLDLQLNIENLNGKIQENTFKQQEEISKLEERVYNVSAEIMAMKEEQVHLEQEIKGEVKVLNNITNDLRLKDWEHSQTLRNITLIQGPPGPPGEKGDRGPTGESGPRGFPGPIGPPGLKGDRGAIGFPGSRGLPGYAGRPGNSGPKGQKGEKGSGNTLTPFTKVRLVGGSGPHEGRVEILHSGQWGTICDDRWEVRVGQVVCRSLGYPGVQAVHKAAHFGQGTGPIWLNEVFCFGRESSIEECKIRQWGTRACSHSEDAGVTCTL

[2] = target: T2, mouse MSR1 on RAW264.7 cells (mouse, UniProt P30204 1-458); experiment: flow cytometry, RAW264.7 cells
T2 construct: whole, on cells; also called MSR1 positive RAW264.7 cells
T2 sequence (looked up): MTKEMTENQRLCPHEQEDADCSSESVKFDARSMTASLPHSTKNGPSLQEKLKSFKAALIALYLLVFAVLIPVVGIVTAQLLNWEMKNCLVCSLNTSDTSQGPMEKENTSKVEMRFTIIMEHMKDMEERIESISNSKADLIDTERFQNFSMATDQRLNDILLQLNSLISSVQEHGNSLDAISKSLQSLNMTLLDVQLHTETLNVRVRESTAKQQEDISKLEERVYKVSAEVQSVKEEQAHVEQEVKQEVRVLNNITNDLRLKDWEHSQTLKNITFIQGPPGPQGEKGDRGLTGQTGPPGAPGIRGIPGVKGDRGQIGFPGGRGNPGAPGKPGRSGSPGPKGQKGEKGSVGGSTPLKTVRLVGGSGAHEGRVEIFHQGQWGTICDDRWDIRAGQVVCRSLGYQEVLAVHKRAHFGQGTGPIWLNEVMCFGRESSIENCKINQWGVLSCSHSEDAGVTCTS
Protocol: To block binding to Fc receptors, RAW264.7 cells were incubated for 30 minutes at 4° C. with 500 pg/mL mouse IgG (Jackson ImmunoResearch, Cat #015-000-003) diluted in staining buffer, while B16F10.9 cells remained in staining buffer. […] The signal to noise (S/N) was determined by calculating the ratio of the anti-MSR1 antibodies or the control antibodies MFI to the unstained sample MFI (Table 11).

[3] = target: T3, full length monkey MSR1 on HEK293.mfMSR1 cells (Macaca fascicularis, UniProt A0A2K5UWE2 1-451); experiment: ECL cell binding, HEK293.mfMSR1 cells, 11 nM
T3 construct: whole, on cells
T3 sequence: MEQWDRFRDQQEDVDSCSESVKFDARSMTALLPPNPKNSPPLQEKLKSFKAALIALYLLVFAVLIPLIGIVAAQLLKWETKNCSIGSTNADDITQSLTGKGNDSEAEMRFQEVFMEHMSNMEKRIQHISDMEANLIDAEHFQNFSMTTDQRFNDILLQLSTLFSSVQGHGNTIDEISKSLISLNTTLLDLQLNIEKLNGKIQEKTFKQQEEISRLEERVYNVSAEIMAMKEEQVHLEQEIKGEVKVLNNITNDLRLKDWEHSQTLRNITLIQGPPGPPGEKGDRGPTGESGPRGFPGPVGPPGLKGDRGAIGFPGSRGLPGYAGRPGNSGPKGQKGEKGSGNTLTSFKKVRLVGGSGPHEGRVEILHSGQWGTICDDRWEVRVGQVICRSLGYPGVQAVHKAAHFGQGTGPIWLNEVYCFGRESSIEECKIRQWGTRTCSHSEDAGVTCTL
Protocol: (§1) All cells were washed once with 1×PBS with Ca²⁺/Mg²⁺ and counted with a Cellometer™ Auto T4 cell counter (Nexcelom Bioscience). Approximately 1.0×10⁴ cells were seeded separately onto 96-well carbon electrode plates [MULTI-ARRAY high bind plate, Meso Scale Diagnostics] and incubated for 1 hour at 37° C. Non-specific binding sites were then blocked by 2% BSA (w/v) in PBS with Ca²⁺/Mg²⁺ for 1 hour at room temperature. THP-1 cells were pre-incubated for 0.5 hours at room temperature in sample dilution buffer with: 1) 1 mg/mL Fc receptor block reagents to block Fc gamma receptors on THP-1 cell surface [whole molecule human IgG (Jackson Immunoresearch, Cat #009-000-003) for wells being tested with anti-MSR1-mFc antibodies or 2) whole molecule mlgG (Jackson Immunoresearch, Cat #015-000-003) for wells being tested with anti-MSR1-hFc antibodies. Antibody binding on HEK293.Myc.hMSR1, HEK293.mfMSR1 and HEK293 cells was tested without Fc receptor block reagents. […] Plates were then washed to remove unbound antibodies an AquaMax2000 plate washer with a cell washing head (MDS Analytical Technologies). […] Plates were washed and developed with Read Buffer (Meso Scale Diagnostics, Cat # R92TD-2) according to manufacturer's recommended procedure and luminescent signals were recorded with a SECTOR Imager 600 (Meso Scale Diagnostics). Luminescence intensity, measured in relative light units (RLU), was recorded to indicate the binding intensity of each antibody at the range of concentrations.

[4] = target: T1, full length human MSR1 with a …; experiment: ECL cell binding, HEK293.Myc.hMSR1 cells, 11 nM
Protocol: as §1

[5] = target: T4, mouse MSR1 extracellular domain expressed with a N-terminal nonahistidine tag (His9-mMSR1); R&D Systems, Cat … (mouse, UniProt P30204 79-458); experiment: BLI Octet, 25 C, antibody captured
T4 construct: extracellular domain; not shown: N-terminal nonahistidine tag
T4 sequence (looked up): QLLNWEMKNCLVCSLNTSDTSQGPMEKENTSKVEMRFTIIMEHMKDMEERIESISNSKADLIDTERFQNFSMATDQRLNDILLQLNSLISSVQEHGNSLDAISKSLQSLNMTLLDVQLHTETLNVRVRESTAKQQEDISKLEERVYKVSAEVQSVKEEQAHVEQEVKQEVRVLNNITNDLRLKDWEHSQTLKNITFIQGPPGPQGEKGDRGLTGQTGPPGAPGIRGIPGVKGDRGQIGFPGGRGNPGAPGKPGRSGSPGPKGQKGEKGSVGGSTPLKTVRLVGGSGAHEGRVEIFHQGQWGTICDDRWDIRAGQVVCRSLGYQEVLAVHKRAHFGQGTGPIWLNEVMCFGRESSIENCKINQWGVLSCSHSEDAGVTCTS

[6] = target: T5, monkey MSR1 extracellular domain expressed with a N-terminal hexahistidine-myc-myc tag (HMM-mfMSR1) (monkey (Macaca fascicularis)); experiment: SPR Biacore, 25 C, antibody captured;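 also: rates from 1:1 fit with mass transport limitation of real-time sensorgrams, HEPES-buffered saline with EDTA and Tween-20 at pH 7.4, KD and t½ derived from the kinetic rates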
T5 chain: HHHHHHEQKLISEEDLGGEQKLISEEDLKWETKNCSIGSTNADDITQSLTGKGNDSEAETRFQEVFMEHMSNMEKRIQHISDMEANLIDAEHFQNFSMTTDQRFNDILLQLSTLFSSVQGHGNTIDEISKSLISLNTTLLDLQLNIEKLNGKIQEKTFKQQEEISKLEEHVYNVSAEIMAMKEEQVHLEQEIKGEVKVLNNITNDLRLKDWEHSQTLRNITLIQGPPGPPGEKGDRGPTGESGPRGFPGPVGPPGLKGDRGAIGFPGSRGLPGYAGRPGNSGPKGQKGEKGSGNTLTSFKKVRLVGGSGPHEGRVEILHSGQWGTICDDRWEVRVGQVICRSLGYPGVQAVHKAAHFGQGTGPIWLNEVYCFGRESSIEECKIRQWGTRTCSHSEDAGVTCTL
Protocol: (§2) Binding affinities and kinetic constants of human anti-MSR1 antibodies for different MSR1 reagents were determined by real-time surface plasmon resonance (Biacore 4000). All binding studies were performed in 10 mM HEPES, 150 mM NaCl, 3 mM EDTA, and 0.05% v/v Surfactant Tween-20, pH 7.4 (HBS-ET) running buffer at 25° C. and 37° C.
(§3) The association rate (kₐ) and dissociation rate (kd) were determined by fitting the real-time binding sensorgrams to a 1:1 binding model with mass transport limitation using Scrubber 2.0c curve-fitting software. Binding dissociation equilibrium constant (KD) and dissociative half-life (t½) were calculated from the kinetic rates as:

[7] = target: T6, human MSR1 extracellular domain expressed with a N-terminal nonahistidine tag (His9-hMSR1); R&D Systems, Cat … (human, UniProt P21757 77-451); experiment: SPR Biacore, 37 C, antibody captured
T6 construct: extracellular domain; also called His-hMSR1; 9xHis-hMSR1; not shown: N-terminal nonahistidine tag
T6 sequence (looked up): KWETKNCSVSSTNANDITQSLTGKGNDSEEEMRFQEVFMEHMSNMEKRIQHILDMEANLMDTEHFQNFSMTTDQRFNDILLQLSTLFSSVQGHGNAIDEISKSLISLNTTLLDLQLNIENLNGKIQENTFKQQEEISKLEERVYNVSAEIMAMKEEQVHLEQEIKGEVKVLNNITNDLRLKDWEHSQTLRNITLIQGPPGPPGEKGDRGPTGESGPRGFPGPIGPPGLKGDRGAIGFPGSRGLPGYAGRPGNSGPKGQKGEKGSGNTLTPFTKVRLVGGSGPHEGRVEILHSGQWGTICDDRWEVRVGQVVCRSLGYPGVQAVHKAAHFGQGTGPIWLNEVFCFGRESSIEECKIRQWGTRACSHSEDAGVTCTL

[8] = target: T5, monkey MSR1 extracellular domain …; experiment: SPR Biacore, 37 C, antibody captured
Protocol: as §2, §3

[9] = target: T6, human MSR1 extracellular domain …; experiment: SPR Biacore, 25 C, antibody captured; kd fixed, no dissociation seen
Protocol: as §2, §3

Row | Binder | % Inhibition of Dil-Acetylated LDL uptake [1] [%] | % Inhibition of Dil-Oxidized LDL uptake [1] [%] | IC50 of Dil-Acetylated LDL uptake inhibition [1] [nM] | IC50 of Dil-Oxidized LDL uptake inhibition [1] [nM] | MFI [2] [MFI] | S/N (MFI over unstained MFI) [2] | ratio of binding signal (RLU) to isotype control [3] [fold] | ratio of binding signal (RLU) to isotype control [4] [fold] | binding result [5] | Kd [6] [nM] | t½ [6] [h] | Kd [7] [nM] | t½ [7] [h] | Kd [8] [nM] | t½ [8] [h] | Kd [9] [nM] | t½ [9] [h]
1 | B1 | 37 | 62 | 1.8 | > 10 | 3510 | 1 | 43 | 48 |  |  |  |  |  |  |  |  | 
2 | B2 |  | 22 |  | 5.5 | 4780 | 1 | 28 | 40 |  |  |  |  |  |  |  |  | 
3 | B3 | 38 | 72 | 3.5 | 3.7 | 3810 | 1 | 13 | 20 |  |  |  |  |  |  |  |  | 
4 | B4 |  |  |  |  |  |  |  |  | no binding (tested: 50 nM) | 0.248 | 6.07 | 0.111 | 6.17 | 0.317 | 1.82 | ≤ 0.0801 | 19.2
5 | B5 | 34 | 52 | 1.3 | 6.1 | 7050 | 3 | 35 | 43 |  |  |  |  |  |  |  |  | 
6 | B6 | 28 |  | 1.2 |  | 3480 | 1 | 6 | 17 |  |  |  |  |  |  |  |  | 
